Assay results taken from the supplement of paper PMC10065799, “High-throughput profiling of sequence recognition by tyrosine kinases and SH2 domains using bacterial peptide display” (eLife, 2023).

Assays:
[1] = target: FGFR3 (UniProt P22607); assay: phosphorylation enrichment, bacterial display (enrichment ratio); higher = better substrate or ligand; peptides without Tyr show the background
[2] = test system: c-Src; assay: as above
[3] = test system: c-Abl (mouse); assay: as above
[4] = target: MERTK (UniProt Q12866); assay: as above
MERTK, sequence (Q12866 whole entry, looked up): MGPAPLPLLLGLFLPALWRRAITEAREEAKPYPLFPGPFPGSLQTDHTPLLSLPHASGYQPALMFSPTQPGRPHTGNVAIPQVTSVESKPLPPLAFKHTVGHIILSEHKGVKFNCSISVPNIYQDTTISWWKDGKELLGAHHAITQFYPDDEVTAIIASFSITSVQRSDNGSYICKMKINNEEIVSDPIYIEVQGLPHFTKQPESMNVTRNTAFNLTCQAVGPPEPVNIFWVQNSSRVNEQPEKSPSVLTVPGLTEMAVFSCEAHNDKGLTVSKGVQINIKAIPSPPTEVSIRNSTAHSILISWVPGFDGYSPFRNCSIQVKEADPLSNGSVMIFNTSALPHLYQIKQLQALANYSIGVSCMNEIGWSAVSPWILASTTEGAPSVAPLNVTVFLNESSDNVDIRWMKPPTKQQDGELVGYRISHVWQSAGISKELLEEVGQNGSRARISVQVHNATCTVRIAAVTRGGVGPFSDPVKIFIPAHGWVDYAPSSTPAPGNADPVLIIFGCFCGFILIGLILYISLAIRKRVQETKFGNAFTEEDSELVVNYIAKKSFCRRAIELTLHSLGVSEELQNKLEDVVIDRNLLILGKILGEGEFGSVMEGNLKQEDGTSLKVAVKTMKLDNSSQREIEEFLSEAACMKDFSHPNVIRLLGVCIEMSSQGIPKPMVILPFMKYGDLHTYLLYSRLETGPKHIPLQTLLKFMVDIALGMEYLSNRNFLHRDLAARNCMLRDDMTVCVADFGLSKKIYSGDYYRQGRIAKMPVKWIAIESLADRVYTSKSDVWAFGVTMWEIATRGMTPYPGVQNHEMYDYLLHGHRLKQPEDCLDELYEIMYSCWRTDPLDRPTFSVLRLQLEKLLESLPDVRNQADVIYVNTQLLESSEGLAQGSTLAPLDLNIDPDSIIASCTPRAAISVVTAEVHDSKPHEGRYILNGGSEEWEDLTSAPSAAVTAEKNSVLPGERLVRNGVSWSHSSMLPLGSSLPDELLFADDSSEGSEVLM

[5] = target: FGFR1 (UniProt P11362); assay: as above
FGFR1, sequence (P11362 whole entry, looked up): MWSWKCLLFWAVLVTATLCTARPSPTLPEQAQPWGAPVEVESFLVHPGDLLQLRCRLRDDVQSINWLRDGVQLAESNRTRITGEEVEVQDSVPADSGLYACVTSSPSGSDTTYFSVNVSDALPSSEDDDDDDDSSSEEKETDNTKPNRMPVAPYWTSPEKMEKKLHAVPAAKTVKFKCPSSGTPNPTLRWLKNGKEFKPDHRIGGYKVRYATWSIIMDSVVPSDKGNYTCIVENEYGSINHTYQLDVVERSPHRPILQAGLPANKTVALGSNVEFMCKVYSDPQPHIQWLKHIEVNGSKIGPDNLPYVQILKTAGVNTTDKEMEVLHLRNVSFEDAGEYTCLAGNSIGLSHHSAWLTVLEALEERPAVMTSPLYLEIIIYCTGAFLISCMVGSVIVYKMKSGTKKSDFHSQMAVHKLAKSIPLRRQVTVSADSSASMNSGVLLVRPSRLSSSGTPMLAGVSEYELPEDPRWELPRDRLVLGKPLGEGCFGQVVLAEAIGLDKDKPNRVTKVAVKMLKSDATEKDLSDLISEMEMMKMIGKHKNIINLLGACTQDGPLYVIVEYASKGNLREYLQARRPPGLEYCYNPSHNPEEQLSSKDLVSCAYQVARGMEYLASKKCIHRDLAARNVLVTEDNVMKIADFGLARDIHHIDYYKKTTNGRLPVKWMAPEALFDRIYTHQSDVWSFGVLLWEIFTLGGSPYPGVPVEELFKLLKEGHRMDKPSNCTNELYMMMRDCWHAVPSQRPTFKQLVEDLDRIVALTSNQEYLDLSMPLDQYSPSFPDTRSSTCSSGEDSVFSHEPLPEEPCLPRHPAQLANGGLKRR

[6] = target: Fes (UniProt P07332); assay: as above
[7] = target: Jak2 (UniProt O60674); assay: as above
[8] = target: EPHB2 (UniProt P29323); assay: as above
EPHB2, sequence (P29323 whole entry, looked up): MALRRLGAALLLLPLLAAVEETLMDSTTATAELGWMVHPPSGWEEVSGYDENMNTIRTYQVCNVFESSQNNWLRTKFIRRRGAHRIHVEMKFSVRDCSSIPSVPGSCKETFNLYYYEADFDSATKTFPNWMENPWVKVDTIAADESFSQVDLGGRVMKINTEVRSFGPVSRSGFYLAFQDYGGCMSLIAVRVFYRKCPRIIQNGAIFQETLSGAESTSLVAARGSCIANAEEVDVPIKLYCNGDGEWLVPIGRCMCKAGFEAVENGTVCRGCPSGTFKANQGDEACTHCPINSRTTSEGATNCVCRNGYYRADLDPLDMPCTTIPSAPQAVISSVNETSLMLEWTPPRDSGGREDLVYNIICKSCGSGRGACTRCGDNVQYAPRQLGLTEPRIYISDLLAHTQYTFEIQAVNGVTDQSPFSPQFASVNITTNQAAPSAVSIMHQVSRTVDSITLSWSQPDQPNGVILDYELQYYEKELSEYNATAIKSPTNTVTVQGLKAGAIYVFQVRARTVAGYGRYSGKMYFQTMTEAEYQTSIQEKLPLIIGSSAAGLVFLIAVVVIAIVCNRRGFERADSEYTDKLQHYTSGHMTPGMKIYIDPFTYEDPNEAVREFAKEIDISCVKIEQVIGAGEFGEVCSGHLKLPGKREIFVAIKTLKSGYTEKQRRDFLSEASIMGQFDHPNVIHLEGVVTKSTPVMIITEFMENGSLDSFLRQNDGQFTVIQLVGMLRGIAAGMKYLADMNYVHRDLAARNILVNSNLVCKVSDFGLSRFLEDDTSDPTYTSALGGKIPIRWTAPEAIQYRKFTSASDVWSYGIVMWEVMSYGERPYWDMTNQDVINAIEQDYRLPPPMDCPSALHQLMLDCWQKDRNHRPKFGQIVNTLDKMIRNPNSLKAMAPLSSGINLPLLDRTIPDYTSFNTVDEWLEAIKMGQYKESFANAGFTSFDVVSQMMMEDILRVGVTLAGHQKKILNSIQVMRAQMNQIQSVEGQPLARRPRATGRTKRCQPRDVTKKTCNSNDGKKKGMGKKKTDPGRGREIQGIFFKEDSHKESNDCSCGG

[9] = target: Hck (UniProt P08631); assay: as above
[10] = test system: Fer (mouse); assay: as above
[11] = test system: AncSZ; assay: as above
[12] = target: Fyn (UniProt P06241); assay: as above
[13] = target: EPHB1 (UniProt P54762); assay: as above
EPHB1, sequence (P54762 whole entry, looked up): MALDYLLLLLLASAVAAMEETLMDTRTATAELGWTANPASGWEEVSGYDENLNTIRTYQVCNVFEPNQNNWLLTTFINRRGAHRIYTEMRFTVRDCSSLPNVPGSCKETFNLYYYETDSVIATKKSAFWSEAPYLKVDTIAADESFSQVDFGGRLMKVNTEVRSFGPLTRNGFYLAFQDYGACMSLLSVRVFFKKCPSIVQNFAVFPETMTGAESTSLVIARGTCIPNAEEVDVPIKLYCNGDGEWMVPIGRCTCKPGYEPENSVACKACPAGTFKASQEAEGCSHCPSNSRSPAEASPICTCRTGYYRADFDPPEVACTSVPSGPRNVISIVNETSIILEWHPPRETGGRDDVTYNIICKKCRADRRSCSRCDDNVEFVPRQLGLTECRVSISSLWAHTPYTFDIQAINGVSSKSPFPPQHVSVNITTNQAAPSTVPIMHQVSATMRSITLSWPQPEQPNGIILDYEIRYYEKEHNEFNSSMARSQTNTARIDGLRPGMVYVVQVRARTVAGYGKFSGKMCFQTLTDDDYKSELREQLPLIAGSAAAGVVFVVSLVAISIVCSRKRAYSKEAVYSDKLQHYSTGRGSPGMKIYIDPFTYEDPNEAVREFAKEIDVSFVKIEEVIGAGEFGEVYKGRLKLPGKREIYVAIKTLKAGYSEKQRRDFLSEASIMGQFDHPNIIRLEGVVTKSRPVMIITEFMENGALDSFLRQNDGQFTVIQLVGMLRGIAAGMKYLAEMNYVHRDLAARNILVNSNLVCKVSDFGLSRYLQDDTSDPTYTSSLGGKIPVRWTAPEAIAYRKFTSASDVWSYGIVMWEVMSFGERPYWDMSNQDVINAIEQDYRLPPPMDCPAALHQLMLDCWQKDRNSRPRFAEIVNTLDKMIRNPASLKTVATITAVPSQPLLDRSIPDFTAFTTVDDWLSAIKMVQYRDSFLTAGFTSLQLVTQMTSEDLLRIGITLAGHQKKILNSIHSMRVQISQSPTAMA

[14] = target: c-Src SH2; assay: SH2 binding enrichment of the phosphorylated peptide, bacterial display (enrichment ratio); higher = better substrate or ligand; peptides without Tyr show the background
[15] = target: Grb2 SH2 (UniProt P62993); assay: as above
Grb2 SH2, sequence (P62993 whole entry, looked up): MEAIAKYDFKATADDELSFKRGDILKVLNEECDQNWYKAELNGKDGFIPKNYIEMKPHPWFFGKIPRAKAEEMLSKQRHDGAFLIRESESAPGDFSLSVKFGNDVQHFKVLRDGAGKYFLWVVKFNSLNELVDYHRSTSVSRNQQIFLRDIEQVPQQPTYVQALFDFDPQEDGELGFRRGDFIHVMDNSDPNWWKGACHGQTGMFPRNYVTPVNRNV

[16] = target: SHP2-C SH2; assay: as above
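Throughout, for SH2 binding enrichment of the phosphorylated peptide, bacterial display: peptide library displayed on the E. coli surface as eCPX fusions, selected cells deep-sequenced, score is each peptide's frequency after selection divided by its frequency in the input.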
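Throughout, for phosphorylation enrichment, bacterial display: 11-residue human phosphosite peptides and single-mutation variants displayed on the E. coli surface, counted by deep sequencing, each peptide's frequency after selection divided by its frequency in the unselected input library; frequency after pTyr selection over input frequency; kinase dosed for 20-30% of maximal phosphorylation in three min.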

FGFR3, sequence (P22607 whole entry, looked up): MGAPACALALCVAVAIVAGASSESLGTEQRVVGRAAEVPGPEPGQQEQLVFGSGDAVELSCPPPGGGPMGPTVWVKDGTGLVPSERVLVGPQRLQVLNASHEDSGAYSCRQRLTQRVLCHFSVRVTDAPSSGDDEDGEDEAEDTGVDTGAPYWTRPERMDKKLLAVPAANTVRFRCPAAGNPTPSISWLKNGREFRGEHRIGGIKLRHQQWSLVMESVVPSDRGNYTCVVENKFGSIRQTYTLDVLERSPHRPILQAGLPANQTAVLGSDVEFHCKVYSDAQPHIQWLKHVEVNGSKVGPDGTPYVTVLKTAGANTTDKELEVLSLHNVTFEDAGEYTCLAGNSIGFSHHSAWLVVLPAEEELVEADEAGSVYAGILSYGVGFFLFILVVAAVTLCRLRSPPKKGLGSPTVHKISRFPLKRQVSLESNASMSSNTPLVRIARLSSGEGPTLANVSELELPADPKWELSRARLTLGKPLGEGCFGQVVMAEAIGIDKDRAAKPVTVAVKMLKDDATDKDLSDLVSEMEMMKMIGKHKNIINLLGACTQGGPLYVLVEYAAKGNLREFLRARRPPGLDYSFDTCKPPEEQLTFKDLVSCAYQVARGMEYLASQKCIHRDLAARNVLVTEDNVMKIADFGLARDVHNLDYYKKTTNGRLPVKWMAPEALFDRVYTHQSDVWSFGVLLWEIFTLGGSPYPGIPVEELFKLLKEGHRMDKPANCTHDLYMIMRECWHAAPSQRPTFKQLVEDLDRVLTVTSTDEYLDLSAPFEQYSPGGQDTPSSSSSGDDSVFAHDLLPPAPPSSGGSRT

Sequence	phosphorylation enrichment [1]	phosphorylation enrichment [2]	phosphorylation enrichment [3]	phosphorylation enrichment [4]	phosphorylation enrichment [5]	phosphorylation enrichment [6]	phosphorylation enrichment [7]	phosphorylation enrichment [8]	phosphorylation enrichment [9]	phosphorylation enrichment [10]	phosphorylation enrichment [11]	phosphorylation enrichment [12]	phosphorylation enrichment [13]	SH2 binding enrichment [14]	SH2 binding enrichment [15]	SH2 binding enrichment [16]
GTPVMYTFDEF [COL10A1_Y623_YF]	0.806	0.668	0.767	1.03	0.504	1.16	1.16	0.611	0.474	0.473	1.03	0.733	0.621	0.662	0.89	0.693
GTYVIYVRFGG [FLNB_Y1687]	0.736	0.752	0.868	0.498	0.511	1.32	1.04	0.696	0.597	0.516	1.22	0.62	0.604	0.533	1.1	0.782
GVCKNYAEAKD [ALB_Y343_D338G]	0.585	0.392	0.6	0.385	0.551	0.729	0.556	0.511	0.498	0.359	0.749	0.371	0.469	0.825	0.886	0.705
GVLDIYGFDIL [MYO1A_Y382_E385D]	0.621	2.69	0.69	0.465	0.448	1.07	0.955	0.566	2.12	0.524	0.978	3.78	0.67	0.427	0.839	0.784
GVLKEYGGKVL [CPS1_Y529_V531G]	0.415	0.396	0.546	0.374	0.361	0.686	0.537	0.343	0.403	0.354	0.588	0.364	0.393	0.29	0.963	0.559
GVMLLYFGRFN [ADGRD1_Y85_T82M_YF]	0.705	0.343	0.65	0.393	0.53	1.26	1.15	0.528	0.531	0.508	1.4	0.441	0.529	0.746	0.956	1.25
GVTLLYYGRDN [ADGRD1_Y85_Y89D]	0.685	0.816	0.894	0.841	0.543	1.01	1.39	0.629	1.01	0.408	0.923	0.545	0.605	0.807	1.13	1.04
GVTLLYYGRYN [ADGRD1_Y85]	0.826	3.17	0.852	0.728	0.611	1.31	1.85	0.92	2.13	0.577	1.5	2.77	0.808	1.05	1.28	1.24
GYSRHYEDGYP [CTNND1_Y217]	0.529	0.488	0.67	0.524	0.391	0.722	0.623	0.465	0.383	0.374	0.691	0.382	0.383	1.46	0.818	0.676
HCYNSYTYPRL [PAK7_Y316_S312C]	0.884	0.725	0.932	2.84	1.35	1.47	1.33	0.784	0.74	0.684	2.4	0.943	0.775	5.34	0.902	0.799
HDKEYYSVHNK [MET_Y1235_Y1230H]	1.88	0.506	0.706	0.503	2.8	0.729	0.75	0.472	0.911	0.865	1.24	0.739	0.714	0.783	0.939	1.67
HDRGNYVRLNM [RECQL4_Y353]	0.943	0.592	0.929	0.837	0.711	1.3	1.09	1.35	0.765	0.671	0.944	0.993	2.3	1.32	0.95	2.16
HDRNTYEKFLG [TF_Y666_YF]	0.751	2.82	0.99	0.936	0.484	1.33	1.29	0.951	1.44	0.378	1.17	2.42	0.525	0.882	1.11	0.797
HFGCVYLGTLL [MET_Y1093_H1094L]	1.67	4.61	1.39	0.597	0.925	2.24	2.07	1.1	1.01	0.923	2.29	0.897	1.02	0.483	0.692	0.553
HFPDVYAREQL [ALX3_Y181_YF]	0.514	0.91	0.667	0.408	0.55	1.04	0.616	0.703	0.722	0.561	0.713	0.588	0.619	0.56	0.832	0.682
HFPFQYHRQLY [F12_Y53]	0.865	0.471	0.508	0.566	0.449	1.28	0.723	0.572	0.656	0.725	1.03	0.59	0.583	1.28	1.27	2.15
HGAGHYEDTIL [ALK_Y1604_P1599H]	0.978	0.752	0.958	0.682	0.787	1.17	1	0.652	0.724	4.64	1.26	0.734	0.829	2.81	0.775	0.791

Sequence	phosphorylation enrichment [1]	phosphorylation enrichment [2]	phosphorylation enrichment [3]	phosphorylation enrichment [4]	phosphorylation enrichment [5]	phosphorylation enrichment [6]	phosphorylation enrichment [7]	phosphorylation enrichment [8]	phosphorylation enrichment [9]	phosphorylation enrichment [10]	phosphorylation enrichment [11]	phosphorylation enrichment [12]	phosphorylation enrichment [13]	SH2 binding enrichment [14]	SH2 binding enrichment [15]	SH2 binding enrichment [16]
HILRVYGGVLP [PCNX4_Y999]	1	0.588	0.874	0.444	0.755	1.12	0.765	0.676	1.01	0.532	1.07	0.699	0.591	0.635	0.913	1.01
HKANEYFPVVL [ADAMTS18_Y764_YF]	4.38	0.556	0.628	0.528	8.42	0.896	1.83	1.5	0.533	0.736	0.872	0.807	0.951	0.462	0.963	0.53
HKLSYNEYDFE [BTK_Y40_Y40N]	0.822	2.02	0.593	0.427	0.756	1.13	0.968	0.824	0.74	0.473	1.27	3.26	0.986	0.79	1.14	0.412
HLELNYKEDEF [MME_Y502_Y497H_YF]	1.48	0.43	0.749	0.589	1.08	0.967	0.903	0.504	0.565	0.64	0.993	0.557	0.594	0.697	0.905	0.392
HLTNQYMQRVA [PABPC4_Y382]	0.33	0.351	1.04	0.277	0.402	0.429	0.406	0.316	0.324	0.446	0.525	0.356	0.307	0.473	1.01	0.929
HNGDRYFKGIV [DCX_Y64_R59H]	0.542	0.585	0.585	0.692	0.286	0.716	0.529	0.344	0.429	0.366	0.707	0.515	0.449	0.413	0.821	0.762
HNQDDYSYPSR [LDLR_Y845_G844D]	0.79	0.597	0.776	0.653	0.82	0.856	0.751	2.52	0.651	0.567	5.73	0.664	1.2	0.829	1.29	0.616
HNQDGYSYPSR [LDLR_Y845]	0.886	0.661	0.823	0.913	0.614	0.826	0.831	0.584	0.618	0.738	1.25	0.836	0.55	6.74	1.07	0.707
HNVPIYEGYAL [ACTA1_Y168]	0.616	12.6	13.2	13.1	0.792	5.3	1.06	35.1	15.1	24.7	1.56	16.9	26	2.97	0.881	1.01
HQPGEYLFHAE [FLT3_Y416_I417L]	0.691	0.879	1.21	0.617	0.628	1.13	1.29	0.724	0.756	0.554	1.09	0.481	0.527	0.514	0.742	1.19
HSDDDYDDPEL [CLNK_Y69]	0.756	0.753	1.06	0.664	0.646	1.74	1.48	0.719	0.846	0.399	1.67	0.439	0.477	0.607	0.779	0.829
HSDFQYGQRSQ [PKP2_Y168_S169G_YF]	0.639	0.682	0.509	0.511	0.495	1.25	0.727	0.628	0.587	0.78	0.641	0.766	0.632	0.394	0.737	0.675
HYMELYDLNRD [BBS2_Y648_R643H]	2.94	6.4	0.862	4.26	3.57	1.22	1.22	1.45	2.89	1.28	1.5	2.58	2.98	2.44	1.07	1.33
ICGVSYDEFRF [CFTR_Y512_F508C_YF]	0.967	1.49	1.03	0.571	0.553	1.5	1.21	0.642	0.842	1.17	1.51	0.764	0.663	0.847	0.838	0.664
IDAVCYYRMEN [NPHS2_Y194_I192V]	3.39	2.48	1.22	0.845	3.5	1.51	4.36	0.745	0.862	0.729	1.96	0.888	0.865	0.421	0.661	0.49
IEDPFYGNDFD [ACP1_Y133_S137F_YF]	0.806	0.544	0.79	0.392	0.548	1.21	0.972	0.644	0.595	0.509	1.27	0.566	0.83	0.736	1.09	0.753
